One assay deals with T1, 6×His-IKKβ(1-669) EE (Homo sapiens, UniProt O14920, S177E/S181E).
T1 construct: a nearly full-length (residues 1-669) and constitutively active (S177E/S181E) mutant construct of human IKKβ; made in house; host or cells: Sf21 insect cells (baculovirus)
T1 sequence (O14920 1-669 S177E/S181E): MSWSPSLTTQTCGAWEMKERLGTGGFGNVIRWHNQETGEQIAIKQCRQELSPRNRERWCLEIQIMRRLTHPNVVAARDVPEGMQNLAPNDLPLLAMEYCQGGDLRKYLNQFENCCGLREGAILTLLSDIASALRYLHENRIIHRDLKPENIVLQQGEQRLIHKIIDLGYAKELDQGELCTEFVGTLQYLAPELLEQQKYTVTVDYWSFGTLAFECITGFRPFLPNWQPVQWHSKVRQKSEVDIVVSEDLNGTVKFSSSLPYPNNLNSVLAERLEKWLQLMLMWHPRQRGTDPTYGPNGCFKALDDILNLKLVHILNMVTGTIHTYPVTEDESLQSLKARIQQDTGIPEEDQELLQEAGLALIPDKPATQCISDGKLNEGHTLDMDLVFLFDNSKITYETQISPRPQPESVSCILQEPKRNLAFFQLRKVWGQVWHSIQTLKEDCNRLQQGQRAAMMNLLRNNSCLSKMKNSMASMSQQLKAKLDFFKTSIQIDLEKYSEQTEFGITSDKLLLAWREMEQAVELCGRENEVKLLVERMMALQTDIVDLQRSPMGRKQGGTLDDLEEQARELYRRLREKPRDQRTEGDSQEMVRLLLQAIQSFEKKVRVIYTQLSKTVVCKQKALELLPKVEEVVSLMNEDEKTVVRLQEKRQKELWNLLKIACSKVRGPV
In words: MBP-pulldown of recombinant IKKβ by MBP-peptide fusions. The class given is binding. The settings on record: 0.3 μM IKKβ, Western blot. The method, then:
Experiments were performed in PD buffer (20 mM Tris pH 8.0, 150 mM NaCl, 2 mM DTT). For each experiment, 10 μl of amylose resin (dry bead volume) coupled to MBP-fusion constructs were incubated with […] of purified 6×His-IKKα(10-667) EE and 6×His-IKKβ (1-669) EE constructs adjusted at a concentration of 0.3 μM for 2 hours at 4° C. After two quick washing steps with PD buffer, complexes were eluted by incubation with 20 μl of the same buffer supplemented with 20 mM maltose for 15 minutes at 4° C. After mild centrifugation, supernatants were recovered and migrated onto two separate 10% SDS-PAGE gels. One gel was used for Western blot analysis to detect His-IKKα or His-IKKβ using and anti-6×His antibody (Sigma, #SAB4301134), the other for Coomassie staining to detect MBP-fusion proteins. Quantification of band intensity was done using the Image J software.

The target in assay [1] is T2, G1-IKKβ, full-length wt IKKβ fused to the Gluc1 fragment (human, UniProt O14920 1-756).
T2 construct: Expressed in HEK293T cells for GPCA; full-length; also called Gluc1-IKKβ; not shown: Gluc1 fragment of Gaussia princeps luciferase and flexible 20 amino acid linker, N-terminal
T2 sequence (looked up): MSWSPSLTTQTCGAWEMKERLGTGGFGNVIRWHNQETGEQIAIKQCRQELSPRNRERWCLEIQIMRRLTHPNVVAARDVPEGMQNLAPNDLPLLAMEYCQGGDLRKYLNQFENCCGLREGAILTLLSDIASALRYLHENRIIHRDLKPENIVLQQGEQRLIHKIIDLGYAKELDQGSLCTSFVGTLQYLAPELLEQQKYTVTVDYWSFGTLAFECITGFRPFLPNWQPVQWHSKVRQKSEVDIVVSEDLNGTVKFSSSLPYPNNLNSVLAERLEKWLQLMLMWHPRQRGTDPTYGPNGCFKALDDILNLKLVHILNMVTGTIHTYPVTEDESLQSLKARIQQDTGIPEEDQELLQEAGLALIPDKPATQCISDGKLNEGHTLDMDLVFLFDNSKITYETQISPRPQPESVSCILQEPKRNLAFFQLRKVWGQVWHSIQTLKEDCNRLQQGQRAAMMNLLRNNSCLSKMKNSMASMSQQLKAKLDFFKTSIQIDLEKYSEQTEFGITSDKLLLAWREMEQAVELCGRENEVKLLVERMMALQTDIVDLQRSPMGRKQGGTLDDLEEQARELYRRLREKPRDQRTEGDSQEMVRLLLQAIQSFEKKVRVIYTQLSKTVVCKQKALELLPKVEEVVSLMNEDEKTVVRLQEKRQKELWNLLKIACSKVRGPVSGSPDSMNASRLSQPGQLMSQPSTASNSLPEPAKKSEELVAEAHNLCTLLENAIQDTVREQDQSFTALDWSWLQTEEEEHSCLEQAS
In words: GPCA (Gaussia princeps protein complementation assay) in HEK293T cells, NLR, mean ± SD of triplicates. The protocol: (§1) HEK293T cells were transfected using the reverse transfection method. Transfection mixes containing 100 ng of pSPICA-N2 and 100 ng of pSPICA-N1 plasmids expressing test proteins plus JetPEI® (Polyplus transfection) were dispensed in white 96-well plates. HEK293T cells were then seeded on the DNA mixes at a concentration of 4.2×10^4 cells per well. 48 hours after transfection, cells were washed with 50 μl of PBS and lysed with 40 μl of Renilla lysis buffer (Promega, E2820) for 30 minutes with agitation. Gaussia princeps luciferase enzymatic activity was measured using a Berthold Centro LB960 luminometer by injecting 50 μl per well of luciferase substrate reagent (Promega, E2820) and counting luminescence for 10 seconds. Results are expressed as a fold change normalized over the sum of controls, specified herein as normalized luminescence ratio (NLR) 29. For a given protein pair A/B, NLR=(Gluc1-A+Gluc2-B)/[(Gluc1-A+Gluc2)+(Gluc1+Gluc2-B)]. All interactions were measured in three independent experiments, with each experiment being carried out in triplicate. The expression levels of Gluc1- and Gluc2-fused proteins were checked by Western blotting. 24 hours post-transfection, HEK293T cells were collected, lysed by incubation on ice and centrifuged. Aliquots of cleared supernatants were loaded onto an 10% SDS-PAGE gel.

The target in assay [2] is T3, G1-IKKα, full-length wt IKKα fused to the Gluc1 fragment (human, UniProt O15111 1-745).
T3 construct: Expressed in HEK293T cells for GPCA; full-length; also called Gluc1-IKKα; not shown: Gluc1 fragment of Gaussia princeps luciferase and flexible 20 amino acid linker, N-terminal
T3 sequence (looked up): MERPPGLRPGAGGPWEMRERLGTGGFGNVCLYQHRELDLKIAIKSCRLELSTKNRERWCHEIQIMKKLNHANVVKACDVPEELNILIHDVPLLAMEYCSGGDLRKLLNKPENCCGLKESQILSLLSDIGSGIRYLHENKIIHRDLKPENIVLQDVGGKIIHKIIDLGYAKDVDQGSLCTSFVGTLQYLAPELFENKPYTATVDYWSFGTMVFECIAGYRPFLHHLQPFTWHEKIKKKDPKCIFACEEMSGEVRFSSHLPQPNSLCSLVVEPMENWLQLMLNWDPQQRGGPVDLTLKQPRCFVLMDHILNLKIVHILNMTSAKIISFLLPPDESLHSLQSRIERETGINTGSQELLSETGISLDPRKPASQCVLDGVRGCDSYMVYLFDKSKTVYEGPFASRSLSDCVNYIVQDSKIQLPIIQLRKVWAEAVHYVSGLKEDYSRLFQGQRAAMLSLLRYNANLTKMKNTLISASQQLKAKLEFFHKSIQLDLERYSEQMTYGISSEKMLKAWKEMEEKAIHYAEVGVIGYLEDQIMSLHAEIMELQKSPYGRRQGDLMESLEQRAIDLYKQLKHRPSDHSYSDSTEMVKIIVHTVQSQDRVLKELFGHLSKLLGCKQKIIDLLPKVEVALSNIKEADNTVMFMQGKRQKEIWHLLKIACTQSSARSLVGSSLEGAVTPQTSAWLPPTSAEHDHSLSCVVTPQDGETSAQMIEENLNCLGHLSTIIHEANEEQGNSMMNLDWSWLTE
The assay is described as above. The protocol: as §1

Assay [3] deals with T3, G1-IKKα, full-length wt IKKα fused to …. In words: GPCA (Gaussia princeps protein complementation assay), G1-IKKα FL with G2-p100 constructs, NLR. The protocol:
as §1

For the molecule “DELPYDDCVFGGQRLTL [IκBα pep(s), 17 amino acid peptide from the IκBα C-terminus (residues 301-317)]”, the “interaction with IKKβ by pulldown” value with 6×His-IKKβ(1-669) EE was “necessary and sufficient to interact with IKKβ”.

Turning to “EFTEDELPYDDFVFGGQRLTL [C308F IκBα pep, IκBα pep with C308F substitution]”, the “interaction with IKKβ by pulldown” value with 6×His-IKKβ(1-669) EE was “clearly enhance binding to IKKβ”.

B1: 73-288 (other)
chain: DGDSFLHLAIIHEEKALTMEVIRQVKGDLAFLNFQNNLQQTPLHLAVITNQPEIAEALLGAGCDPELRDFRGNTPLHLACEQGCLASVGVLTQSCTTPHLHSILKATNYNGHTCLHLASIHGYLGIVELLVSLGADVNAQEPCNGRTALHLAVDLQNPDLVSLLLKCGADVNRVTYQGYSPYQLTWGRPSTRIQQQLGQLTLENLQMLPESEDEES
notes: also called G2-IκBα 73-288; IκBα(73-288); not shown: N-terminal Gluc2 fragment of Gaussia princeps luciferase and the flexible 20 amino acid linker (pSPICA-N2)
For B1, the binding result in assay [1] and in assay [2] was “binds” in each case.

B2: 39-852 (other)
chain: YLVIVEQPKQRGFRFRYGCEGPSHGGLPGASSEKGRKTYPTVKICNYEGPAKIEVDLVTHSDPPRAHAHSLVGKQCSELGICAVSVGPKDMTAQFNNLGVLHVTKKNMMGTMIQKLQRQRLRSRPQGLTEAEQRELEQEAKELKKVMDLSIVRLRFSAFLRASDGSFSLPLKPVISQPIHDSKSPGASNLKISRMDKTAGSVRGGDEVYLLCDKVQKDDIEVRFYEDDENGWQAFGDFSPTDVHKQYAIVFRTPPYHKMKIERPVTVFLQLKRKRGGDVSDSKQFTYYPLVEDKEEVQRKRRKALPTFSQPFGGGSHMGGGSGGAAGGYGGAGGGGSLGFFPSSLAYSPYQSGAGPMGCYPGGGGGAQMAATVPSRDSGEEAAEPSAPSRTPQCEPQAPEMLQRAREYNARLFGLAQRSARALLDYGVTADARALLAGQRHLLTAQDENGDTPLHLAIIHGQTSVIEQIVYVIHHAQDLGVVNLTNHLHQTPLHLAVITGQTSVVSFLLRVGADPALLDRHGDSAMHLALRAGAGAPELLRALLQSGAPAVPQLLHMPDFEGLYPVHLAVRARSPECLDLLVDSGAEVEATERQGGRTALHLATEMEELGLVTHLVTKLRANVNARTFAGNTPLHLAAGLGYPTLTRLLLKAGADIHAENEEPLCPLPSPPTSDSDSDSEGPEKDTRSSFRGHTPLDLTCSTKVKTLLLNAAQNTMEPPLTPPSPAGPGLSLGDTALQNLEQLLDGPEAQGSWAELAERLGLRSLVDTYRQTTSPSGSLLRSYELAGGDLAGLLEALSDMGLEEGVRLLRGPET
notes: also called G2-p100 39-852; not shown: N-terminal Gluc2 fragment of Gaussia princeps luciferase and the flexible 20 amino acid linker (pSPICA-N2)
With B2, the binding result in assay [3] is “binds”.

B3: G2-IκBα FL (other, UniProt P25963 1-317, looked up)
chain: MFQAAERPQEWAMEGPRDGLKKERLLDDRHDSGLDSMKDEEYEQMVKELQEIRLEPQEVPRGSEPWKQQLTEDGDSFLHLAIIHEEKALTMEVIRQVKGDLAFLNFQNNLQQTPLHLAVITNQPEIAEALLGAGCDPELRDFRGNTPLHLACEQGCLASVGVLTQSCTTPHLHSILKATNYNGHTCLHLASIHGYLGIVELLVSLGADVNAQEPCNGRTALHLAVDLQNPDLVSLLLKCGADVNRVTYQGYSPYQLTWGRPSTRIQQQLGQLTLENLQMLPESEDEESYDTESEFTEFTEDELPYDDCVFGGQRLTL
notes: range 1-317; Expressed in HEK293T cells for GPCA; also called full-length IκBα; not shown: Gluc2 fragment of Gaussia princeps luciferase and flexible 20 amino acid linker, N-terminal
Turning to B3, the binding result in assay [1] and in assay [2] was “binds” each time.

B4: 73-317 YD/SS (other)
chain: DGDSFLHLAIIHEEKALTMEVIRQVKGDLAFLNFQNNLQQTPLHLAVITNQPEIAEALLGAGCDPELRDFRGNTPLHLACEQGCLASVGVLTQSCTTPHLHSILKATNYNGHTCLHLASIHGYLGIVELLVSLGADVNAQEPCNGRTALHLAVDLQNPDLVSLLLKCGADVNRVTYQGYSPYQLTWGRPSTRIQQQLGQLTLENLQMLPESEDEESYDTESEFTEFTEDELPSDSCVFGGQRLTL
notes: also called G2-IκBα 73-317 YD/SS; G2-IκBα(73-317) Y305S/D307S; not shown: N-terminal Gluc2 fragment of Gaussia princeps luciferase and the flexible 20 amino acid linker (pSPICA-N2)
Take B4: the binding result in assay [1] and in assay [2] was “binds” in each case.

The record behind these values is patent US20260265321A1, “PEPTIDE AND POLYPEPTIDE INHIBITING THE NF-KB SIGNALING PATHWAY” (Centre National de la Recherche Scientifique, priority 2023, published 2026).
